# Measurements taken from US20240059770A1.
# B1: Anti-Human Oxyntomodulin N-Terminal Antibody (antibody, V domains shown)
# VH: QIQLVQSGPELKKPGETVKISCKASGYTFTDYAFSWVKQAPGKGLKWMGWITTNTGEATYADDFKGRFAFSLETSASTAYLQISNLKNEDTATYFCARETEYGDSSWFGHWGQGTLVTVSA
# VL: DIVLTQSPASLAVSLGQRATISCRASESVDGWGNSFMHWYQQKPGQPPKLLIYLATYRVAGIPARFSGSGSRTDFTLTINPVEADDVATYYCMQSSEDPYTFGGGTKLEIKR
# Biological target: human glucose-dependent insulinotrophic polypeptide (GIP) (human)
# Assay: sandwich immunoassay (MSD ECL): C-Terminal Antibody as capture, ruthenium-labelled N-Terminal Antibody as detection
# human glucose-dependent insulinotrophic polypeptide (GIP) (human), sequence (peptide, as listed by the source): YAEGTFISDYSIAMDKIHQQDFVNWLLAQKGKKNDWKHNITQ
binder,measurement,value
B1,"percent cross-reactivity (ECL against human oxyntomodulin (53-89), blank subtracted)",0.12%
